Assay results taken from the supplement of paper PMC10126150.
± gives the standard deviation of the averaged measurements.

Test system: ATP
Assay: switch fluorescence ratio, 500 uM ATP over buffer (Cy3 cluster intensity, sum of 5 cycles each) (fold (ratio)); higher = stronger signal-on switching upon ATP binding; sequences stand for … in TCGTCGGCAGCGTCAGATGTGTATAAGAGACAGTTTTTTTTTTTTTTTTTTTTTTTTT…TC
Conditions: aptamer strand: ATP DNA aptamer (quencher-CACCTGGGGGAGTATTGCGGAGGAAGG + anchor), 100 nM annealed; ATP concentration: 500 uM
Summary of the method: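 The quencher-labelled ATP aptamer, at 100 nM, was annealed to Cy3-labelled switching-strand clusters on a modified Illumina MiSeq flow-cell. The clusters were imaged in selection buffer, then after 15 min with 500 uM ATP at 22 °C, and this buffer/ATP cycle ran five times with NaOH stripping and re-annealing between runs. Per-cluster fluorescence ratios, summed target-cycle over summed buffer-cycle Cy3 intensity, were averaged per switch-domain sequence. Clusters outside 100-1000 RFU were excluded.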
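Note: ATP exposure 15 min at 22 °C before imaging.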

Sequence	switch fluorescence ratio
AGGGGGTATC	0.988 ± 0.023
AGGGGGTCAC	1 ± 0.026
AGGGGGTCCG	1.03 ± 0.049
AGGGGGTCGA	1.01 ± 0.035
AGGGGGTGTG	0.989 ± 0.043
AGGGGGTTTG	1.01 ± 0.033
AGGGGTAAAT	1.02 ± 0.073
AGGGGTAATA	0.9817 ± 0.006
AGGGGTAGCG	0.9539 ± 0.0073
AGGGGTAGGG	1.01 ± 0.027
AGGGGTATCG	1 ± 0.029
AGGGGTATCT	0.9739 ± 0.007
AGGGGTGCGC	0.9894 ± 0.0055
AGGGGTGCGG	1.04 ± 0.08
AGGGGTGGAG	1.02 ± 0.006
AGGGGTGTTT	0.999 ± 0.039
AGGGGTTAGC	0.974 ± 0.05
AGGGTAAATT	1.03 ± 0.053
AGGGTAAGTC	0.972 ± 0.043
AGGGTACAGT	1.04 ± 0.055
AGGGTAGGGG	0.994 ± 0.03
AGGGTAGGTG	1.09 ± 0.012
AGGGTATGTT	0.9682 ± 0.004
AGGGTATTCA	1.01 ± 0.02
AGGGTCAGGG	1.01 ± 0.04

Sequence	switch fluorescence ratio
AGGGTCGGAA	1.02 ± 0.018
AGGGTCTTGC	0.998 ± 0.014
AGGGTGCCGT	0.988 ± 0.08
AGGGTGCTCC	1.23 ± 0.33
AGGGTGCTCG	1.02 ± 0.047
AGGGTGGGGG	1.03 ± 0.036
AGGGTGGGTA	0.9768 ± 0.0053
AGGGTGGTGT	0.976 ± 0.039
AGGGTGGTTT	0.997 ± 0.02
AGGGTGTGCC	1.01 ± 0.018
AGGGTTAACA	1.01 ± 0.016
AGGGTTAGCA	1.02 ± 0.021
AGGGTTATCG	1.02 ± 0.018
AGGGTTCTGG	0.971 ± 0.028
AGGGTTGCAT	0.9863 ± 0.0025
AGGGTTGGCA	0.998 ± 0.029
AGGGTTGGGT	1.01 ± 0.03
AGGGTTTGGG	1.01 ± 0.038
AGGTAAACGT	1.05 ± 0.083
AGGTAAATTA	0.9982 ± 0.0076
AGGTAACTGT	1.01 ± 0.051
AGGTAAGCTA	1.025 ± 0.005
AGGTAAGGGT	0.974 ± 0.035
AGGTAATAGC	1.05 ± 0.0078
AGGTACCGTT	1.033 ± 0.0017

Sequence	switch fluorescence ratio
AGGTACGTGG	0.996 ± 0.059
AGGTAGAGAG	0.992 ± 0.038
AGGTAGCACA	1.056 ± 0.0036
AGGTAGGCGT	0.97539 ± 0.00061
AGGTAGTTTA	1.02 ± 0.045
AGGTATGCGT	0.985 ± 0.041
AGGTATTGGA	0.985 ± 0.015
AGGTATTTG	0.986 ± 0.013
AGGTCATGTA	1.01 ± 0.026
AGGTCCGACG	0.967 ± 0.041
AGGTCGAATT	1 ± 0.051
AGGTCGGGAG	0.9895 ± 0.0072
AGGTCGTCGT	0.955 ± 0.017
AGGTCGTGGG	0.996 ± 0.016
AGGTCTATGC	0.975 ± 0.016
AGGTCTATTG	1.06 ± 0.09
AGGTCTGCGG	0.967 ± 0.025
AGGTCTTTCG	1.002 ± 0.003
AGGTGACGGT	0.9809 ± 0.0085
AGGTGAGGCA	1.05 ± 0.097
AGGTGCCGTG	1.02 ± 0.083
AGGTGCTGGG	1.03 ± 0.013
AGGTGGGGAT	0.994 ± 0.021
AGGTGGTGAC	0.979 ± 0.018
AGGTGGTGCT	0.991 ± 0.056

Sequence	switch fluorescence ratio
AGGTGGTGTG	0.984 ± 0.015
AGGTGTAACA	1.15 ± 0.2
AGGTGTGAGC	1.03 ± 0.012
AGGTTAGGGT	0.969 ± 0.015
AGGTTATATT	1.01 ± 0.024
AGGTTCAAAG	0.959 ± 0.037
AGGTTCATCT	1.011 ± 0.0057
AGGTTGAAGG	0.997 ± 0.016
AGGTTGAGAT	1.04 ± 0.041
AGGTTGAGGA	0.964 ± 0.033
AGGTTGCCGG	1.04 ± 0.046
AGGTTGGGGC	1.01 ± 0.052
AGGTTGTAGC	0.998 ± 0.02
AGGTTGTCGT	0.997 ± 0.035
AGGTTGTGAG	0.98 ± 0.034
AGGTTGTTCT	0.967 ± 0.035
AGGTTTATTT	1.02 ± 0.018
AGGTTTCCGT	1.02 ± 0.032
AGGTTTGACA	1.027 ± 0.0067
AGGTTTGCGT	1.01 ± 0.021
AGGTTTTCAG	0.983 ± 0.045
AGGTTTTCGT	1.028 ± 0.0039
AGGTTTTGGG	0.979 ± 0.022
AGGTTTTGTG	1.02 ± 0.044
AGGTTTTTGA	0.991 ± 0.04

Sequence	switch fluorescence ratio
AGTAAAGGGT	0.999 ± 0.012
AGTAAATTAT	1.03 ± 0.027
AGTAACCGGC	0.967 ± 0.12
AGTAACCTTG	1.02 ± 0.022
AGTAACGCTT	1.008 ± 0.01
AGTAACGGTA	1.04 ± 0.012
AGTAACGGTG	1.034 ± 0.0019
AGTAAGATAA	0.986 ± 0.058
AGTAAGCGAC	1.063 ± 0.0014
AGTAAGGGCG	0.992 ± 0.039
AGTAAGGGGT	0.982 ± 0.021
AGTAAGGTGT	1.13 ± 0.095
AGTAATAGGA	1.03 ± 0.076
AGTACAATGC	1.47 ± 0.18
AGTACCAATG	1.03 ± 0.039
AGTACGATTG	1 ± 0.023
AGTACGGATA	1.03 ± 0.074
AGTACGGTGC	1.02 ± 0.017
AGTACGGTGG	0.985 ± 0.064
AGTACGTTAT	1.14 ± 0.026
AGTACGTTGG	0.966 ± 0.034
AGTACTAACT	1.05 ± 0.048
AGTACTGACC	1.23 ± 0.037
AGTAGAATGG	1.001 ± 0.0004
AGTAGACGAC	1.03 ± 0.042

Sequence	switch fluorescence ratio
AGTAGAGAAT	1.04 ± 0.017
AGTAGAGGTT	1.008 ± 0.0064
AGTAGCTCTC	1.02 ± 0.013
AGTAGGGGTA	0.974 ± 0.039
AGTAGGGTTA	0.989 ± 0.029
AGTAGTAAAC	1.02 ± 0.016
AGTAGTTGGC	1.01 ± 0.12
AGTATCCAAA	0.999 ± 0.027
AGTATCTTCG	0.9923 ± 0.0027
AGTATGATTT	0.98 ± 0.027
AGTATGTCGA	1.01 ± 0.015
AGTATGTCGT	1.03 ± 0.024
AGTATGTGGG	0.996 ± 0.048
AGTATTCGCT	0.975 ± 0.017
AGTATTGCTC	1.01 ± 0.024
AGTATTTTG	0.96 ± 0.013
AGTCAAAGGA	1.012 ± 0.0051
AGTCAACTTG	1.01 ± 0.053
AGTCAGAAAT	1 ± 0.022
AGTCAGGCGA	1.01 ± 0.078
AGTCATAAAA	1.01 ± 0.045
AGTCCGTCGT	1.026 ± 0.0068
AGTCCTTTGT	1.02 ± 0.025
AGTCGCCCTG	0.985 ± 0.05
AGTCGCGCGC	0.989 ± 0.011

Sequence	switch fluorescence ratio
AGTCGGACGG	1.01 ± 0.034
AGTCGGATTC	1.09 ± 0.076
AGTCGGGAGA	1.01 ± 0.015
AGTCGTGTCT	0.967 ± 0.012
AGTCGTTGAG	1.02 ± 0.033
AGTCGTTTTT	0.98 ± 0.026
AGTCTAAGTG	0.956 ± 0.021
AGTCTGAGAC	1.013 ± 0.0089
AGTCTGGACT	0.988 ± 0.025
AGTCTGGGGC	0.942 ± 0.023
AGTCTGGTGC	1.04 ± 0.032
AGTGACAACA	1.007 ± 0.0021
AGTGAGGATC	0.993 ± 0.032
AGTGAGTAAC	0.9811 ± 0.0061
AGTGAGTGCT	0.9751 ± 0.0059
AGTGCAAGAT	1.08 ± 0.028
AGTGCATTGG	1 ± 0.024
AGTGCGTGGG	1.002 ± 0.0061
AGTGGACATC	0.99098 ± 0.00034
AGTGGACGAC	0.9912 ± 0.0079
AGTGGAGACG	1.03 ± 0.012
AGTGGAGCTG	1.02 ± 0.038
AGTGGATTCT	1.004 ± 0.0022
AGTGGATTGG	1.01 ± 0.045
AGTGGCCCCG	1 ± 0.011

Sequence	switch fluorescence ratio
AGTGGCCGCG	1.02 ± 0.016
AGTGGGGAGA	1.02 ± 0.035
AGTGGGGATG	1.01 ± 0.013
AGTGGGGGAG	1.002 ± 0.0087
AGTGGGGGTG	1.03 ± 0.043
AGTGGGGTCA	0.989 ± 0.021
AGTGGGTGTT	1.01 ± 0.045
AGTGGGTTTC	0.9697 ± 0.0026
AGTGGTAAAG	1.012 ± 0.0029
AGTGGTGGCT	1.04 ± 0.018
AGTGGTGTGG	0.993 ± 0.044
AGTGGTTCGG	0.993 ± 0.015
AGTGGTTTGT	0.949 ± 0.017
AGTGTAATTT	0.973 ± 0.02
AGTGTACCGG	0.997 ± 0.01
AGTGTATATG	1.1 ± 0.099
AGTGTCTATT	0.981 ± 0.0055
AGTGTGAAGG	1.003 ± 0.0099
AGTGTGAGTT	1.025 ± 0.01
AGTGTGGATT	1.03 ± 0.015
AGTGTGGCCA	1.02 ± 0.016
AGTGTGGTCT	1.02 ± 0.045
AGTGTGTTCT	1.02 ± 0.021
AGTGTGTTGC	1.023 ± 0.0095
AGTGTTACGT	0.989 ± 0.042
